Data: US11078246B2, “Peptides binding to Bfl-1” (Dana-Farber Cancer Institute, Inc., priority 2015, dated 2021)

What was measured:
Assay type in all cases: binding
tBID/FLAG-MCL-1 = target: T1, tBID/FLAG-MCL-1 (Homo sapiens, UniProt Q07820); assay: Competition with tBID in 293T lysates (FLAG immunoprecipitation); details: 5 μM biotinylated peptide, non-covalent
T1 construct: expressed in transfected cells; host or cells: 293T
Procedure: (§1) 293T cells were maintained in DMEM containing 10% FBS and penicillin/streptomycin, and transfections performed with 2 μg pCMV plasmid containing HA-BFL-1ΔC C4S/C19S using X-tremeGENE 9 (Roche). For lysate experiments, cells were trypsinized 24 hours post-transfection, washed with PBS, and lysed by incubation with 1% CHAPS lysis buffer (150 mM NaCl, 50 mM Tris pH 7.4, 100 mM DTT). Protein concentration of the soluble fraction was measured using a BCA kit according to manufacturer's instructions (Thermo Scientific). […] Samples were then boiled in LDS buffer and subjected to western analysis using 1:1000 dilutions of HA (Sigma-Aldrich. #12CA5) and biotin (Abcam, #53494) antibodies. To evaluate the capacity of biotinylated SAHBs to compete with tBID for interactions with BFL-1 and MCL-1, 293T cells were transfected with either HA-BFL-1ΔC C4S/C19S or FLAG-MCL-1 in the p3XFLAG-CMV-10 vector (Sigma) as above. After 24 h, cells were trypsinized, washed with PBS, lysed in 1% CHAPS buffer, and the supernatant collected for protein concentration determination by BCA kit. […] The mixtures were then subjected to HA or FLAG (Sigma-Aldrich, F7425) immunoprecipitation, followed by western analysis using 1:1000 dilutions of HA, FLAG, biotin, and BID (Santa Cruz sc-11423) antibodies. […] Cells were harvested and lysed as above, and incubated overnight with anti-HA agarose beads (Pierce). […]

tBID/HA-BFL-1ΔC C4S/C19S = target: T2, tBID/HA-BFL-1ΔC C4S/C19S (Homo sapiens, UniProt Q16548, C19S/C4S); assay: Competition with tBID in 293T lysates (HA immunoprecipitation); details: 5 μM biotinylated peptide, 0.25 μM tBID, 6 h
T2 construct: cDNA encoding BFL-1ΔC (aa 1-153) was cloned into the pET19b expression vector; expressed in transfected cells; host or cells: 293T
T2 sequence (Q16548 1-153 C4S/C19S): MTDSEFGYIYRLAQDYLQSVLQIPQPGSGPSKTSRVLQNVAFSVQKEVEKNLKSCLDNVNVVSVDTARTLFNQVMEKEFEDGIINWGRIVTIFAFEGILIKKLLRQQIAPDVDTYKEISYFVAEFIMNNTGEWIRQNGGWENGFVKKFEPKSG
Procedure: Protein concentration of the soluble fraction was measured using a BCA kit according to manufacturer's instructions (Thermo Scientific). […] After 24 h, cells were trypsinized, washed with PBS, lysed in 1% CHAPS buffer, and the supernatant collected for protein concentration determination by BCA kit. […] Cells were harvested and lysed as above, and incubated overnight with anti-HA agarose beads (Pierce). The beads were washed 3 times with lysis buffer, eluted by boiling in LDS buffer, and subjected to western analysis with HA and biotin antibodies. […] Biotin capture was accomplished by incubating the mixture with high-capacity SA agarose (Thermo Scientific) for 2 h at 4° C., followed by centrifugation and washing the pelleted beads with 3×1 mL lysis buffer.

MCL-1 = target: T3, MCL-1 (Homo sapiens, UniProt Q07820); assay: SA pull-down from A375P lysates, MCL-1 western; details: A375P lysate, biotinylated peptides
T3 construct: we incubated A375P lysates with the corresponding biotinylated BIM SAHBs; endogenous in cells; host or cells: A375P melanoma cell lysate
Procedure: as §1

T1 sequence (Q07820 whole entry): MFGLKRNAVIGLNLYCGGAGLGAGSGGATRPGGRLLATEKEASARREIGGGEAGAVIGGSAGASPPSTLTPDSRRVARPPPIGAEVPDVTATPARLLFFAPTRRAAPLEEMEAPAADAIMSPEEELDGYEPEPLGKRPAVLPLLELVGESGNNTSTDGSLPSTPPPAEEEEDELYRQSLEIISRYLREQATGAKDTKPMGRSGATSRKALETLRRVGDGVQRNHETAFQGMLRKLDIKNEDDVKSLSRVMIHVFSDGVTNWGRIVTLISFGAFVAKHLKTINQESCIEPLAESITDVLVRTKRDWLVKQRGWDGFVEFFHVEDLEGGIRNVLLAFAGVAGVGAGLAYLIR

In the case of “BIM SAHBA: stapled BIM BH3 peptide (aa 147-166) lacking the acrylamide-based warhead”, the “competition with tBID for FLAG-MCL-1” value (tBID/FLAG-MCL-1) is reported as “equally effective”, the “competition with tBID for HA-BFL-1 binding” value (tBID/HA-BFL-1ΔC C4S/C19S) is reported as “incapable of competing with tBID” and the “binding to MCL-1” value (MCL-1) is reported as “equivalent binding”.
